Experimental findings from PMC4707092 (Journal of immunology (Baltimore, Md. : 1950), 2015) are described below.

The test addresses C3b (UniProt P01024 749-1663, most molecules attached to the chip surface via the thioester group). Briefly: SPR. On the technique in general: In SPR one partner is held on a chip, and binding of the other changes the refractive index at the surface.

B1: midiFH (other)
chain: AGEDCNELPPRRNTEILTGSWSDQTYPEGTQAIYKCRPGYRSLGNVIMVCRKGEWVALNPLRKCQKRPCGHPGDTPFGTFTLTGGNVFEYGVKAVYTCNEGYQLLGEINYRECDTDGWTNDIPICEVVKCLPVTAPENGKIVSSAMEPDREYHFGQAVRFVCNSGYKIEGDEEMHCSDDGFWSKEKPKCVEISCKSPDVINGSPISQKIIYKENERFQYKCNMGYEYSERGDAVCTESGWRPLPSCEEGKCGPPPPIDNGDITSFPLSVYAPASSVEYQCQNLYQLEGNKRITCRNGQWSEPPKCLHPCVISREIMENYNIALRWTAKQKLYSRTGESVEFVCKRGYRLSSRSHTLRTTCWDGKLEYPTCAKREDCNELPPRRNTEILTGSWSDQTYPEGTQAIYKCRPGYRSLGNVIMVCRKGEWVALNPLRKCQKRPCGHPGDTPFGTFTLTGGNVFEYGVKAVYTCNEGYQLLGEINYRECDTDGWTNDIPICEVVKCLPVTAPENGKIVSSAMEPDREYHFGQAVRFVCNSGYKIEGDEEMHCSDDGFWSKEKPKCVEISCKSPDVINGSPISQKIIYKENERFQYKCNMGYEYSERGDAVCTESGWRPLPSCEEGKCGPPPPIDNGDITSFPLSVYAPASSVEYQCQNLYQLEGNKRITCRNGQWSEPPKCLHPCVISREIMENYNIALRWTAKQKLYSRTGESVEFVCKRGYRLSSRSHTLRTTCWDGKLEYPTCAKR
Broadly, the Kd is the free concentration of one partner at which half of the binding sites on the other are occupied at equilibrium, for simple one-to-one binding. A low value points to higher affinity. Consider B1, for which binding was put at a Kd of 27 nM.

B2: miniFH (other)
chain: AGEDCNELPPRRNTEILTGSWSDQTYPEGTQAIYKCRPGYRSLGNVIMVCRKGEWVALNPLRKCQKRPCGHPGDTPFGTFTLTGGNVFEYGVKAVYTCNEGYQLLGEINYRECDTDGWTNDIPICEVVKCLPVTAPENGKIVSSAMEPDREYHFGQAVRFVCNSGYKIEGDEEMHCSDDGFWSKEKPKCVEISCKSPDVINGSPISQKIIYKENERFQYKCNMGYEYSERGDAVCTESGWRPLPSCEEGKCGPPPPIDNGDITSFPLSVYAPASSVEYQCQNLYQLEGNKRITCRNGQWSEPPKCLHPCVISREIMENYNIALRWTAKQKLYSRTGESVEFVCKRGYRLSSRSHTLRTTCWDGKLEYPTCAKR
Turning to B2, binding was characterised by a dissociation constant (Kd) of 709 nM.
